Measurements: patent US12287344B2, “Fret-based method to measure seeding activity of misfolded protein species in biological samples” (MAX-DELBRÜCK-CENTRUM FÜR MOLEKULARE MEDIZIN IN DER …, priority 2018, dated 2025)

Test system: Ex1Q48-CyPet/-YPet
Experiment: FRASE assay: effect of added preformed fibrils/seeds on Ex1Q48-CyPet/-YPet polymerization
Type: biochemical, human
Settings: sonicated Ex1Q48 seeds (~1,250 kDa); sensor 1:1 mixture, 1.2 μM
Procedure: (B) Effects of small, preformed Ex1Q48 seeds (1250 kDa) on Ex1Q48-CyPet and -YPet (1:1 mixture, total conc. 1.2 μM) co-aggregation. Data are mean±SEM (n=5).
(D) Effects of non-polyQ fibrils on Ex1Q48-CyPet and -YPet (1:1 mixture, total conc. 1.2 μM) co-aggregation. Data are mean±SD of triplicates.
Spontaneous Ex1Q48 aggregation was initiated by addition of 14 U PreScission protease (GE Healthcare) per nmol purified GST-Ex1Q48 fusion protein (2 μM). The aggregation reaction was performed in 50 mM Tris-HCl pH 7.4, 150 mM NaCl, 1 mM EDTA and 1 mM DTT at 25° C. and constant agitation (450 rpm) for 24 h. […]
Purified GST-Ex1Q48-CyPet and GST-Ex1Q48-YPet were diluted in aggregation buffer at an equimolar ratio to a final concentration of 1.2 μM (0.6 μM each) with 14 U PSP per nmol sensor proteins if not stated otherwise. […] For quantification of seeding-competent HTT species in tissue samples, the sensor-protein mixture was supplemented with up to 10% (v/v) tissue homogenate. Fluorescence signals were measured every 20 min following a 5 s pulse of vertical shaking with a Tecan M200 fluorescence plate reader at 25° C. for up to 48 h. CyPet donor fluorescence was measured at excitation (Ex): 435 nm/emission (Em): 475 nm; YPet acceptor fluorescence at Ex: 500 nm/Em: 530 nm; the FRET channel (DA) was recorded at Ex: 435 nm/Em: 530 nm. […]

B1: Ex1Q48 seeds: preformed recombinant mutant huntingtin exon 1 (48 glutamines) aggregates, sonicated, ~1,250 kDa (protein)
chain: MATLEKLMKAFESLKSFQQQQQQQQQQQQQQQQQQQQQQQQQQQQQQQQQQQQQQQQQQQQQQQQPPPPPPPPPPPQLPQPPPQAQPLLPQLQPPPPPPPPPPGPAAAEEPLHRP
threshold for detecting seeds in FRASE assay: ~60 fM
